Source: patent publication US20260315592 (published 2026)

B1: SX13-1 (CAR42) (antibody)
chain: QLVESGGGLVKPGGSLRLSCAASGFTFSDYSMNWVRQAPGKGLEWVSSISSSSRYKYYADSMKGRFTISRDNAKNSLYLQMNSLRVEDTAVYYCTRGIDYFDYWGQGTLVTVSSSGGGGSGGGGSGGGGSDIQLTQSPSFLSASVGDRVTITCRASQDINNYLAWYQQKPGKAPKFLIHVASTLQSGVPSRFSGSGSGTEFTLTISSLQPEDSATYYCQQLNSYPRTFGQGTKVEIK
B2: SX13-7 (CAR46) (antibody)
chain: QLVESGGGLVKPGGSLRLSCAASGFTFSDYSMNWVRQAPGKGLEWVSSISSSSSYKKYADSVKGRLTISRDNAKNSLYLQMNSLRAEDTAVYYCARGIDYFDYWGQGTLVTVSSSGGGGSGGGGSGGGGSDIQLTQSPSFLSASVGDRVTITCRASQGISSNLAWYQQKPGKDPKVLIYGASTLQSGVPSRFSGSGSGTEFTLTISSLQPEDFATYYCQQLNSYPRTFGQGTKVEIK
B3: SX13-10 (CAR48) (antibody)
chain: QLLESGGGLVKPGGSLRLSCAASGFTFSRYNMNWVRQAPGKGLEWVSFISGSSSYVYYADSVKGRFTISKDNAKNSLYLQMNSLRAEDTAVYYCARSGYCTSTTCYNYYYYYMDVWGKGTTVTVSSSGGGGSGGGGSGGGGSEIVLMQSPGTLSLSPGERATLSCRASQSVSNSYLAWYQQKPGQAPRLLIYGASSRATGIPDRFSGSGSGTDFTLTISRLEPEDFAVFYCQQFGSSPLTFGGGTKVEIK
B4: SX13-12 (CAR49) (antibody)
chain: QLVESGGGLVKPGGSLRLSCAASGFTFSDYSMNWVRQAPGKGLNWVASISSSSHYKYYADSVKGRFTISRDNAKNSLYLQMNSLRAEDTAVYYCARGIDFFDIWGQGTMVTVSSSGGGGSGGGGSGGGGSDIQLTQSPSFLSASVGDRVTITCRASQDINSYLVWYQQKPGKAPKLLIYTASTLQSGVPSRFSGSGSGTEFTLTIRSLQPEDFATYYCQQLNSYPRTFGQGTKVEIK

These binders were tested against ENPP3 (human).
Chain of ENPP3 (human) (chain, as listed by the source): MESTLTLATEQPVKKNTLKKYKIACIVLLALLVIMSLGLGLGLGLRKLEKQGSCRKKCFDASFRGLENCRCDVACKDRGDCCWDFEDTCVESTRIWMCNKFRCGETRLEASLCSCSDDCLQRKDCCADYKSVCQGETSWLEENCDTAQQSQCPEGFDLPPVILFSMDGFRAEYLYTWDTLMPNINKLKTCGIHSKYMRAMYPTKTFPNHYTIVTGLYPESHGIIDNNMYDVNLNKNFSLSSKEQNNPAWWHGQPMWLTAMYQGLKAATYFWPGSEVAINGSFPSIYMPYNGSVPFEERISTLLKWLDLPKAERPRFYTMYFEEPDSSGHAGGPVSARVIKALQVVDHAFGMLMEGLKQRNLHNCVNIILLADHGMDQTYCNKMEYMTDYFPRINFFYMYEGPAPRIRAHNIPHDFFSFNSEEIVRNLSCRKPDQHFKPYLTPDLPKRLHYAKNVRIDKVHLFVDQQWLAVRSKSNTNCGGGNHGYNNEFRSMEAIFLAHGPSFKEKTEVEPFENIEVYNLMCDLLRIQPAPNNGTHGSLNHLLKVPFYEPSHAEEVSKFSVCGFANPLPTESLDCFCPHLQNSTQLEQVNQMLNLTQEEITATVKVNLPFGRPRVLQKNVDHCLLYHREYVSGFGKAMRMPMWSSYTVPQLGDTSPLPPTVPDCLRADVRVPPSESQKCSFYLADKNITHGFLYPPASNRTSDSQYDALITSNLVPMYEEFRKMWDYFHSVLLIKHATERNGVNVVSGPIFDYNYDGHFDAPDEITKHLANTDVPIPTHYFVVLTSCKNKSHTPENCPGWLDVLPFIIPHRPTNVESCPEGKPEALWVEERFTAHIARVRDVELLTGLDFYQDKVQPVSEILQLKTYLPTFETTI

Which Kd does the source give for B1 here?
The Kd was 0.0189 µM.

How did the Kd turn out when B2 was run?
Its Kd is 0.00424 µM.

For B3, which Kd is on record?
The Kd was 0.113 µM.

How did the Kd turn out when B4 was run?
The Kd was 0.0235 µM.
